For this assay, the target named is T1, human antigen that binds to mAb1 (human LINGO-1) (human, UniProt Q96FE5 42-538, limits assumed).
T1 sequence (looked up): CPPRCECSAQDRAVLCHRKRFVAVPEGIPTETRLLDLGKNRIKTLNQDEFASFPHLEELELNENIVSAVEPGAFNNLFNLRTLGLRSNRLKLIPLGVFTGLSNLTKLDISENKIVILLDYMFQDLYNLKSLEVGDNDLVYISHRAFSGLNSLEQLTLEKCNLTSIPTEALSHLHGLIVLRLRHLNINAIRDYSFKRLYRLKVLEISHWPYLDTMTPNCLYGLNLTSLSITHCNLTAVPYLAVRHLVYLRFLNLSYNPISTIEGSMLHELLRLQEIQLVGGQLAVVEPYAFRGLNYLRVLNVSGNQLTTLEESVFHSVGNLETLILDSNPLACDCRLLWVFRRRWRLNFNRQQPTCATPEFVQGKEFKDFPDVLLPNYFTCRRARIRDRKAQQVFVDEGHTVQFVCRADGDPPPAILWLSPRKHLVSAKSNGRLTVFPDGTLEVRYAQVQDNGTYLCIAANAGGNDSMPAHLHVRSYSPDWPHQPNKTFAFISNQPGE
As to the kind of experiment: direct binding ELISA on plate-coated human antigen; preparation with 39% trisulfide at LC5-HC5. As for the experimental part:
Costar 96-well easy wash plates were coated overnight with 5 μg/mL human antigen that binds to mAb1 (50 μL/well), in 50 mM sodium carbonate (pH 9.5) at 4° C. Plates were washed 3 times with 350 μL of PBS using a plate washer and blocked with 1% BSA, 0.1% ovalbumin, and 0.1% non-fat dry milk in Hank's balanced salt buffer containing 25 mM HEPES (pH 7.0) for 1 hour at room temperature. Plates were then washed again, and incubated for 1 h with a 3-fold dilution series set up for each test compound (50 μL/well, 8 dilutions) starting at 10 μg/mL and all in 0.1% BSA, 0.1% ovalbumin, and 0.1% non-fat dry milk in Hank's balanced salt buffer containing 25 mM HEPES (pH 7.0), and again washed. Bound mAb1 was detected using AP-anti-human Fab. […] Plates were read at 405 nm on a Molecular Devices plate reader. EC₅₀ values for binding were calculated from the titration curve using prism software. The function of mAb2 was assessed as for mAb1 except that 96 well microplates were coated overnight at 4° C. with 1 μg/mL (in 15 mM Na₂CO₃, 35 mM NaHCO₃, pH 9.6) of a human antigen that binds to mAb2. […] Binding was determined using a horseradish peroxidase-conjugated goat anti-human polyclonal antibody (Jackson ImmunoResearch, West Grove, Pa.) followed by measurement of horse radish peroxidase activity using the substrate tetramethylbenzidine.
On the technique in general: ELISA stands for enzyme-linked immunosorbent assay.

B1: anti-LINGO-1 antibody Li81 (antibody, V domains shown)
VH: EVQLLESGGGLVQPGGSLRLSCAASGFTFSAYEMKWVRQAPGKGLEWVSVIGPSGGFTFYADSVKGRFTISRDNSKNTLYLQMNSLRAEDTAVYYCATEGDNDAFDIWGQGTTVTVSS
VL: DIQMTQSPATLSLSPGERATLSCRASQSVSSYLAWYQQKPGQAPRLLIYDASNRATGIPARFSGSGSGTDFTLTISSLEPEDFAVYYCQQRSNWPMYTFGQGTKLEIK
notes: Tested as an aglycosyl human IgG1 made in CHO cells; They differ only in the share of trisulfide at the light-heavy (LC5-HC5) interchain bond; also called mAb1; Mab1
The molecule B1 returned an EC50 of 0.02 nM.

In general, EC50 refers to the midpoint of the concentration-response curve. Higher therefore signals lower potency in that assay.

For the origin of these results see patent US20150274808A1 (Biogen, published 2015).
